Measured values reported in PMC12893043.

Molecular target: GFP(+36)
Assay: time-resolved fluorescence anisotropy; AfFtn-GFP(+36) assembly at pH 7.6 with 500 mM NaCl and with 175 mM NaCl; [GFP] = 1 uM; biexponential fit (instrument response, rotational diffusion of the assembly), no homoFRET; triplicate

Substance: AfFtn (from UniProt O29424 1-173)
- stoichiometry N: 12 to 1
